Measurements as given in the supplement of paper PMC7877785.
± gives the uncertainty stated by the source.

Experiment: self-splicing fitness, log relative to wild type (ln ratio); higher = more splicing; Tetrahymena group I intron in knt gene, E. coli kanamycin selection, DiMSum; sequences stand for … in CUCUCU…GGAGGGAAAAGUUAUCAGGCAUGCACCUGGUAGCUAGUCUUUAAACCAAUAGAUUGCAUCGGUUUAAAAGGCAAGACCGUCAAAUUGCGGGAAAGGGGUCAACAGCCGUUCAGUACCAAGUCUCAGGGGAAACUUUGAGAUGGCCUUGCAAAGGGUAUGGUAAUAAGCUGACGGACAUGGUCCUAACCACGCAGCCAAGUCCUAAGUCAACAGAUCUUCUGUUGAUAUGGAUGCAGUUCACAGACUAAAUGUCGGUCGGGGAAGAUGUAUUCUUCUCAUAAGAUAUAGUCGGACCUCUCCUUAAUGGGAGCUAGCGGAUGAAGUGAUGCAACACUGGAGCCGCUGGGAACUAAUUUGUAUGCGAAAGUAUAUUGAUUAGUUUUGGAGUACUCGUGGUCG
Outline: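 DiMSum derived fitness as the error-weighted combination of fold changes across replicates, kanamycin versus no kanamycin, normalised to wild type. E. coli BL21(DE3) held the library, which randomised all eight P1ex-region intron nucleotides within the knt kanamycin-resistance gene on pET-22b(+). Six replicate transformations grew overnight at 37°C or 30°C on LB agar with or without 25 μg/mL kanamycin, also containing 100 μg/mL carbenicillin, 50 μM IPTG and 0.2% rhamnose, and pooled colonies were amplicon-sequenced on an Illumina HiSeq 2500.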

Row | Sequence | self-splicing fitness (ln) (30 °C) | self-splicing fitness (ln) (37 °C)
1 | GCCGAGCAAUAUUACGCGUC | -0.898 ± 0.14 | -0.0598 ± 0.2
2 | GCCGAGCAAUAUUACGGAAA | -0.987 ± 0.1 | -0.953 ± 0.1
3 | GCCGAGCAAUAUUACGGAUA | -1.68 ± 0.14 | -0.192 ± 0.13
4 | GCCGAGCAAUAUUACGGAUU | -1.37 ± 0.08 | -0.945 ± 0.092
5 | GCCGAGCAAUAUUACGGCGA | -0.848 ± 0.21 | -1.42 ± 0.24
6 | GCCGAGCAAUAUUACGGCGU | -2.55 ± 0.13 | -0.897 ± 0.1
7 | GCCGAGCAAUAUUACGGCUA | -2.04 ± 0.35 | -1.35 ± 0.27
8 | GCCGAGCAAUAUUACGGCUG | -3.31 ± 0.34 | -2.96 ± 0.38
9 | GCCGAGCAAUAUUACGGGAC | -0.849 ± 0.11 | -1.12 ± 0.15
10 | GCCGAGCAAUAUUACGGGCG | -1.18 ± 0.17 | -0.688 ± 0.18
11 | GCCGAGCAAUAUUACGGGGC | -4.27 ± 0.39 | -2.28 ± 0.27
12 | GCCGAGCAAUAUUACGGUCC | -3.18 ± 0.29 | -1.23 ± 0.33
13 | GCCGAGCAAUAUUACGUAUC | -2.66 ± 0.16 | -1.75 ± 0.13
14 | GCCGAGCAAUAUUACGUCCA | -1.27 ± 0.48 | -1.32 ± 0.32
15 | GCCGAGCAAUAUUACGUCCC | -0.316 ± 0.14 | -0.826 ± 0.22
16 | GCCGAGCAAUAUUACGUGAU | -1.01 ± 0.073 | -0.638 ± 0.088
17 | GCCGAGCAAUAUUACGUGGU | -3.39 ± 0.14 | -2.47 ± 0.16
18 | GCCGAGCAAUAUUACGUUAA | -3.34 ± 0.27 | -1.78 ± 0.18
19 | GCCUAGCAAUAUUACGAAAA | -3.05 ± 0.33 | -1.04 ± 0.26
20 | GCCUAGCAAUAUUACGAACC | -1.07 ± 0.27 | 0.0441 ± 0.29
21 | GCCUAGCAAUAUUACGAAUC | -1.36 ± 0.066 | 0.0359 ± 0.086
22 | GCCUAGCAAUAUUACGAAUG | -2.57 ± 0.18 | -2.43 ± 0.25
23 | GCCUAGCAAUAUUACGACCG | -1.8 ± 0.34 | -0.867 ± 0.39
24 | GCCUAGCAAUAUUACGACGG | -3.6 ± 0.31 | -2.37 ± 0.27
25 | GCCUAGCAAUAUUACGAGGC | -4.1 ± 0.36 | -1.77 ± 0.26

Row | Sequence | self-splicing fitness (ln) (30 °C) | self-splicing fitness (ln) (37 °C)
26 | GCCUAGCAAUAUUACGAUCC | -1.08 ± 0.093 | 0.0207 ± 0.13
27 | GCCUAGCAAUAUUACGAUGG | -3.13 ± 0.21 | -2.05 ± 0.21
28 | GCCUAGCAAUAUUACGCCUA |  | -2.79 ± 0.43
29 | GCCUAGCAAUAUUACGCGUA | -1.89 ± 0.13 | -0.683 ± 0.12
30 | GCCUAGCAAUAUUACGCUAU | -0.383 ± 0.11 | -0.105 ± 0.17
31 | GCCUAGCAAUAUUACGCUCA | -1.68 ± 0.16 | -0.0373 ± 0.17
32 | GCCUAGCAAUAUUACGCUCG | -2.7 ± 0.2 | -2.06 ± 0.3
33 | GCCUAGCAAUAUUACGCUGC |  | -1.32 ± 0.21
34 | GCCUAGCAAUAUUACGCUUU | -0.497 ± 0.097 | -0.0274 ± 0.12
35 | GCCUAGCAAUAUUACGGACC | -1.6 ± 0.19 | -1.31 ± 0.28
36 | GCCUAGCAAUAUUACGGACU | -1.01 ± 0.1 | -0.221 ± 0.11
37 | GCCUAGCAAUAUUACGGAUG | -1.84 ± 0.11 | -0.882 ± 0.12
38 | GCCUAGCAAUAUUACGGCAU | -3.27 ± 0.27 | -0.94 ± 0.13
39 | GCCUAGCAAUAUUACGGGUC | -4.6 ± 0.36 | -2.89 ± 0.25
40 | GCCUAGCAAUAUUACGGUAU | -0.978 ± 0.07 | -0.02 ± 0.08
41 | GCCUAGCAAUAUUACGGUCG | -3.36 ± 0.2 | -2.5 ± 0.25
42 | GCCUAGCAAUAUUACGGUCU | -1.12 ± 0.067 | -1.08 ± 0.078
43 | GCCUAGCAAUAUUACGGUUA | -1.47 ± 0.11 | -0.443 ± 0.091
44 | GCCUAGCAAUAUUACGUAAA | -1.1 ± 0.076 | -0.594 ± 0.093
45 | GCCUAGCAAUAUUACGUACU | -0.867 ± 0.092 | -0.282 ± 0.093
46 | GCCUAGCAAUAUUACGUCGG | -3.62 ± 0.19 | -2.93 ± 0.21
47 | GCCUAGCAAUAUUACGUCGU | -0.763 ± 0.068 | -0.337 ± 0.069
48 | GCGAAGCAAUAUUACGAACC | -1.67 ± 0.13 | -1.06 ± 0.15
49 | GCGAAGCAAUAUUACGACCA | -0.945 ± 0.21 | -0.159 ± 0.38
50 | GCGAAGCAAUAUUACGACUC | -0.212 ± 0.086 | 0.367 ± 0.1

Row | Sequence | self-splicing fitness (ln) (30 °C) | self-splicing fitness (ln) (37 °C)
51 | GCGAAGCAAUAUUACGAGAC | -2.67 ± 0.26 | -1.46 ± 0.25
52 | GCGAAGCAAUAUUACGAUAA | -2.27 ± 0.15 | -1.46 ± 0.2
53 | GCGAAGCAAUAUUACGAUAU | -2.52 ± 0.13 | -1.22 ± 0.12
54 | GCGAAGCAAUAUUACGAUCC | -1.64 ± 0.21 | -1.76 ± 0.3
55 | GCGAAGCAAUAUUACGCCUA | -3.1 ± 0.45 | -2.39 ± 0.34
56 | GCGAAGCAAUAUUACGCGAA | -2.2 ± 0.13 | -1.68 ± 0.14
57 | GCGAAGCAAUAUUACGCGCA | -1.75 ± 0.36 | -1.11 ± 0.22
58 | GCGAAGCAAUAUUACGCGUC |  | -1.65 ± 0.17
59 | GCGAAGCAAUAUUACGCGUU | -2.54 ± 0.15 | -2.77 ± 0.27
60 | GCGAAGCAAUAUUACGCUAG | -3.28 ± 0.26 | -0.964 ± 0.32
61 | GCGAAGCAAUAUUACGCUCA | -1.48 ± 0.28 | -2.25 ± 0.33
62 | GCGAAGCAAUAUUACGGAUC | -0.303 ± 0.071 | -0.659 ± 0.094
63 | GCGAAGCAAUAUUACGGAUG | -1.48 ± 0.078 | -1.32 ± 0.11
64 | GCGAAGCAAUAUUACGGUCU | -1.71 ± 0.085 | -0.493 ± 0.089
65 | GCGAAGCAAUAUUACGUAGC | -3.43 ± 0.23 | -2.22 ± 0.23
66 | GCGAAGCAAUAUUACGUCGU | -3.79 ± 0.27 | -2.6 ± 0.28
67 | GCGAAGCAAUAUUACGUUUA | -2.57 ± 0.14 | -1.32 ± 0.11
68 | GCGCAGCAAUAUUACGAGAG | -3.03 ± 0.19 | -1.35 ± 0.1
69 | GCGCAGCAAUAUUACGAUCC | -0.589 ± 0.15 | 0.707 ± 0.24
70 | GCGCAGCAAUAUUACGAUCG | -1.61 ± 0.11 | 0.00803 ± 0.12
71 | GCGCAGCAAUAUUACGCCUU | -2.92 ± 0.23 | 0.19 ± 0.14
72 | GCGCAGCAAUAUUACGCGGA | -0.906 ± 0.096 | -0.269 ± 0.084
73 | GCGCAGCAAUAUUACGGAAC | -1.37 ± 0.081 | -0.714 ± 0.098
74 | GCGCAGCAAUAUUACGGAGG | -1.63 ± 0.12 | -0.473 ± 0.11
75 | GCGCAGCAAUAUUACGGCCU | -0.201 ± 0.061 | 0.128 ± 0.072

Row | Sequence | self-splicing fitness (ln) (30 °C) | self-splicing fitness (ln) (37 °C)
76 | GCGCAGCAAUAUUACGGGCA | -2.9 ± 0.14 | -1.24 ± 0.11
77 | GCGCAGCAAUAUUACGGGGC | -3.33 ± 0.18 | -2.75 ± 0.38
78 | GCGCAGCAAUAUUACGGUGC | -4.08 ± 0.25 | -2.13 ± 0.32
79 | GCGCAGCAAUAUUACGUAAC | -1.3 ± 0.088 | -0.468 ± 0.12
80 | GCGCAGCAAUAUUACGUCCG | -2.27 ± 0.11 | -0.478 ± 0.14
81 | GCGCAGCAAUAUUACGUCGG | -1.4 ± 0.097 | -0.816 ± 0.13
82 | GCGCAGCAAUAUUACGUGUC | -2.71 ± 0.19 | -2.83 ± 0.24
83 | GCGCAGCAAUAUUACGUUCG | -1.7 ± 0.068 | -1.47 ± 0.096
84 | GCGCAGCAAUAUUACGUUGU | -3.03 ± 0.13 | -1.24 ± 0.12
85 | GCGGAGCAAUAUUACGAAUC | -2.17 ± 0.44 | 
86 | GCGGAGCAAUAUUACGAGGG | -4.49 ± 0.36 | -2.93 ± 0.34
87 | GCGGAGCAAUAUUACGAGUC |  | -1.09 ± 0.45
88 | GCGGAGCAAUAUUACGCACU | -2.62 ± 0.14 | -2.79 ± 0.18
89 | GCGGAGCAAUAUUACGCCUA | -2.53 ± 0.46 | 
90 | GCGGAGCAAUAUUACGGCUG | -2.93 ± 0.34 | 
91 | GCGGAGCAAUAUUACGGGCG | -1.83 ± 0.13 | -1.21 ± 0.17
92 | GCGGAGCAAUAUUACGUAGU | -2.12 ± 0.23 | 0.836 ± 0.34
93 | GCGGAGCAAUAUUACGUGAG | -2.51 ± 0.12 | -2.01 ± 0.15
94 | GCGUAGCAAUAUUACGAAAC | -0.751 ± 0.25 | -0.283 ± 0.4
95 | GCGUAGCAAUAUUACGACCA | -1.52 ± 0.17 | -0.255 ± 0.16
96 | GCGUAGCAAUAUUACGACCU | -0.0292 ± 0.22 | -0.575 ± 0.34
97 | GCGUAGCAAUAUUACGACGU | -3.1 ± 0.16 | -1.45 ± 0.28
